This note sets out measurements from US20150197564A1 (Regeneron, published 2015).

The labels stand for the following.
B8: hANGPTL3(17-460)-His (other)
chain: SRIDQDNSSFDSLSPEPKSRFAMLDDVKILANGLLQLGHGLKDFVHKTKGQINDIFQKLNIFDQSFYDLSLQTSEIKEEEKELRRTTYKLQVKNEEVKNMSLELNSKLESLLEEKILLQQKVKYLEEQLTNLIQNQPETPEHPEVTSLKTFVEKQDNSIKDLLQTVEDQYKQLNQQHSQIKEIENQLRRTSIQEPTEISLSSKPRAPRTTPFLQLNEIRNVKHDGIPAECTTIYNRGEHTSGMYAIRPSNSQVFHVYCDVISGSPWTLIQHRIDGSQNFNETWENYKYGFGRLDGEFWLGLEKIYSIVKQSNYVLRIELEDWKDNKHYIEYSFYLGNHETNYTLHLVAITGNVPNAIPENKDLVFSTWDHKAKGHFNCPEGYSGGWWWHDECGENNLNGKYNKPRAKSKPERRRGLSWKSQNGRLYSIKSTKMLIHPTDSESFEHHHHHHHHHH

One assay addresses T1, bovine LPL (bovine, UniProt P11151 29-478, limits assumed).
T1 sequence (looked up): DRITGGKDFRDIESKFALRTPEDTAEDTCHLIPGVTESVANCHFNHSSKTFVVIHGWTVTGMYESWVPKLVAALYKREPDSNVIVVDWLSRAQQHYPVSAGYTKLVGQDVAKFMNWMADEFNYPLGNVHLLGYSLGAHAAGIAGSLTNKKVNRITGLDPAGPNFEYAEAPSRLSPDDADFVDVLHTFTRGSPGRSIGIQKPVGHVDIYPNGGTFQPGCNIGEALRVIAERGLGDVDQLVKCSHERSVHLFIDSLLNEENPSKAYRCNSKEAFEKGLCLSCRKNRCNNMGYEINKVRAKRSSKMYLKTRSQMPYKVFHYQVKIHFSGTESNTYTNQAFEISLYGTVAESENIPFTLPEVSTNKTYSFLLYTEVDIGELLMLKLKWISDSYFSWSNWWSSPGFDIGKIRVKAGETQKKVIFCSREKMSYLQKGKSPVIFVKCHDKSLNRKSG
The assay is described as follows: cell-based or functional assay.

The next assay deals with T2, hANGPTL3(17-169)-mFc (human).
T2 construct: also called N-terminal coiled-coil domain of hANGPTL3 with a C-terminal mouse Fc fusion
T2 chain: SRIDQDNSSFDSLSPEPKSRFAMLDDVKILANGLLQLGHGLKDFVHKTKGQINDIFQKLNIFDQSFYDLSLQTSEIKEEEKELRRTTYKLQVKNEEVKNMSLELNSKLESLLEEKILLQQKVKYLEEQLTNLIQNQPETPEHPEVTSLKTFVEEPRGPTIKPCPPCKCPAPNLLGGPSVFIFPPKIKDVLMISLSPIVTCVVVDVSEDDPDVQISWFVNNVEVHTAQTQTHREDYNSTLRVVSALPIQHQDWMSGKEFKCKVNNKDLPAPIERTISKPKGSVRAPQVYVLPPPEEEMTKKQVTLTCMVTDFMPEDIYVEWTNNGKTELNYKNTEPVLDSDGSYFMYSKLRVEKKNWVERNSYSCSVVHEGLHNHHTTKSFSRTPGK
The assay is described as follows: SPR Biacore, antigen captured, 25C, pH 7.4, HBS-EP. On the procedure: (§1) All kinetic binding experiments were performed at 25° C. or 37° C. on a BIACORE™ T200 label-free molecular interaction instrument (GE Healthcare) using a CM5 sensor chip. Briefly, an antigen capture surface was generated by covalently coupling either an anti-mouse IgG-specific antibody (anti-mFc; GE Healthcare; catalog #BR-1008-38) or an anti-pentahistidine-specific antibody (Qiagen; catalog #34660) to the surface of a CM5 sensor chip using a standard amine coupling method.
(In general: In SPR one partner is held on a chip, and binding of the other changes the refractive index at the surface.)

Assay [1] has as its target B8. The assay is described as follows: SPR Biacore, antigen captured, 25C, pH 7.4, HBS-EP. On the procedure:
as §1

Another assay addresses T3, mANGPTL3(17-455)-His (Mus musculus, UniProt Q9R182 17-455).
T3 construct: Bought protein (R&D Systems); also called full-length mature ANGPTL3 from Mus musculus with a C-terminal decahistidine tag
T3 sequence: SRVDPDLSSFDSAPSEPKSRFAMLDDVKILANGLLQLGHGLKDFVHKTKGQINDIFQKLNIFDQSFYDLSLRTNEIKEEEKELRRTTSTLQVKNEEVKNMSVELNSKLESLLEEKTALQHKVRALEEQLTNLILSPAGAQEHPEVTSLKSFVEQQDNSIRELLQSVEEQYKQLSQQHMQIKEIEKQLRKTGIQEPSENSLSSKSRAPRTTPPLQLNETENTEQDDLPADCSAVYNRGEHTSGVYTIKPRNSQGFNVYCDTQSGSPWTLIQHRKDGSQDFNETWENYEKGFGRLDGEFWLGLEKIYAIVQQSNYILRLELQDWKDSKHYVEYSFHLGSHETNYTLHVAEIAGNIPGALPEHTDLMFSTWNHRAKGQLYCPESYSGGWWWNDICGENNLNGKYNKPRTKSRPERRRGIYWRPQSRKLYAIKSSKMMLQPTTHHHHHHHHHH
The assay can be described thus: SPR Biacore, antigen captured, 37C, pH 7.4, HBS-EP. On the procedure: as §1

Assay [2] deals with B8. The assay is described as follows: SPR Biacore, antigen captured, 37C, pH 7.4, HBS-EP. On the procedure: as §1

B1: hANGPTL3(17-170)-His (other)
chain: SRIDQDNSSFDSLSPEPKSRFAMLDDVKILANGLLQLGHGLKDFVHKTKGQINDIFQKLNIFDQSFYDLSLQTSEIKEEEKELRRTTYKLQVKNEEVKNMSLELNSKLESLLEEKILLQQKVKYLEEQLTNLIQNQPETPEHPEVTSLKTFVEKHHHHHH
As for B1, in the assay with bovine LPL, the “EC50 (nM), inhibition of LPL activity” value was 91 nM.

B2: H4H1296P (antibody, IgG4, V domains shown)
VH: QVQLVESGGVSVKPGGSLRLSCAASGFTFSDYYMSWIRQAPGKGLEWVSYIGSSGTNDYYADSVKGRFTISRDNAKNSLYLQMDSLRAEDTAVYYCARDSSQMGFDYWGQGTLVTVSS
VL: DIQMTQSPSSLSASVGDRVTITCRASQNIINFLNWYQQRPGKAPQLLIYVAASLQSGVPSRFTGSGYGTDFTLTISSLQPEDFATYYCQQTYTNPLTFGGGTKVEIKR
In general, Kd refers to the concentration at which binding is half-saturated. Lower therefore signals tighter binding. For orientation: koff means the rate constant with which the complex falls apart. By kon is commonly meant the rate constant with which the complex forms. Consider B2, for which, in the assay with hANGPTL3(17-169)-mFc, the Kd is 0.0611 nM, the off-rate (koff) was 3.92e-05 s⁻¹, the kon is 641000 M⁻¹ s⁻¹ and the t1/2 was 295 min. Besides, in the assay with hANGPTL3(17-460)-His [1], the Kd is 0.137 nM, the koff is 4.12e-05 s⁻¹, the kon turned out to be 301000 M⁻¹ s⁻¹ and the t1/2 stood at 280 min.

B3: MfANGPTL3(17-170)-mmH (other)
chain: SRIDQDNSSFDSVSPEPKSRFAMLDDVKILANGLLQLGHGLKDFVHKTKGQINDIFQKLNIFDQSFYDLSLQTSEIKEEEKELRRTTYKLQVKNEEVKNMSLELNSKLESLLEEKILLQQKVKYLEEQLTNLIQNQPATPEHPEVTSLKSFVEKEQKLISEEDLGGEQKLISEEDLHHHHHH
For B3, the “EC50 (nM), inhibition of LPL activity” value in the assay with bovine LPL turned out to be 625 nM.

B4: H4H1295P (antibody, V domains shown)
VH: QVQLVQSGPEVKKPGASVRVSCKASGYLSDFIITWVRQAPGQGLEWMGWISTYSGDTDSAPKFQGRVTMTTDTSTTTVFLELRSLRSDDTAVYYCARGRLFDYWGQGTLVTVSS
VL: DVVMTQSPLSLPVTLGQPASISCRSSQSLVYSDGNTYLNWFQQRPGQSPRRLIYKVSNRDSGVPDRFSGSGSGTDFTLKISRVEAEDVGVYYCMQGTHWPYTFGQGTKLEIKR
In the assay with hANGPTL3(17-169)-mFc, B4 came in with a Kd of 0.226 nM, a koff of 7.95e-05 s⁻¹, a kon of 352000 M⁻¹ s⁻¹ and a t1/2 of 145 min. In the assay with hANGPTL3(17-460)-His [1], this molecule registered a Kd of 0.197 nM, a koff of 7.35e-05 s⁻¹, a kon of 373000 M⁻¹ s⁻¹ and a t1/2 of 157 min.

B5: H4H1268S (antibody, IgG4, V domains shown)
VH: QVQLQQSGPGLVKPSQTLSLTCAISGDSVSSNSPAWNWIRQSPSRGLEWLGRTYYRSKWYNDYAVSVRGRITINPDTSNNQFSLHLNSVTPEDTAMYYCARDKGLTARPTYFDYWGQGTLVTVSS
VL: DIQMTQSPSTLSASVGDRVTITCRASQSINYWLAWYQQKPGKAPKPLIYKASSLESGVPSRFSGSGSGTEFTLTISSLQPDDFTTYYCQQYNSYSPTFGQGTKLEIKR
In the assay with hANGPTL3(17-169)-mFc, B5 gave a Kd of 0.721 nM, a koff of 0.000835 s⁻¹, a kon of 1.16e+06 M⁻¹ s⁻¹ and a t1/2 of 14 min. In the assay with hANGPTL3(17-460)-His [1], this molecule returned a Kd of 1.47 nM, a koff of 0.00189 s⁻¹, a kon of 1.29e+06 M⁻¹ s⁻¹ and a t1/2 of 6 min.

B6: H4H1248P (antibody, IgG4, V domains shown)
VH: QVQLVESGGGVVQPGRSLRLSCAASGFTFSSYGMHWVRQAPGKGLEWVAVISYDGSNKYYADSVKGRFTISRDNSKNTLYLQMNSLRAEDTAVYYCAKVGATTFYYYYGMDVWGQGTTVTVSS
VL: DIQMTQSPSSVSAFVGDRVTITCRASQGISSWLAWYQQKPGKAPKLLIYAASSLQSGVPSRFSGSGSGTDFTLTISSLQPEDFATYYCQKANSFPFTFGPGTKVEIK
As to B6, the binding result with mANGPTL3(17-455)-His was “no binding”. In the assay with hANGPTL3(17-460)-His [2], this molecule had a Kd of 0.986 nM, a koff of 0.00193 s⁻¹, a kon of 1.96e+06 M⁻¹ s⁻¹ and a t1/2 of 6 min. In the assay with hANGPTL3(17-169)-mFc, the Kd amounted to 5.95 nM, the koff came out at 0.00272 s⁻¹, the kon came to 457000 M⁻¹ s⁻¹ and the t1/2 was 4 min. Further, in the assay with hANGPTL3(17-460)-His [1], the Kd was 5.62 nM, the koff came out at 0.00247 s⁻¹, the kon was found to be 440000 M⁻¹ s⁻¹ and the t1/2 came to 5 min.

B7: H4H1282P (antibody, IgG4, V domains shown)
VH: EVQLVQSGGGVVQPGRSLRLSCAASGFTFSNYGMHWVRQAPGKGLEWVAVVWYDGDNKYYADSVKGRFTISRDNSKNTLYLQMNSLRAEDTAVYYCARDIITSRPTLDYWGQGTLVTVSS
VL: DIQLTQSPSFLSASVGDRVTITCWASQGINSYLAWYQQKPGKAPKLLIYPASTLQSGVPSRFSGSGSGTEFTLTISSLQPVDFATYYCQQLNSYPLTFGGGTKVEIKR
Regarding B7, in the assay with hANGPTL3(17-169)-mFc, binding was put at a Kd of 0.0463 nM, the koff worked out at 5.92e-05 s⁻¹, the kon was found to be 1.28e+06 M⁻¹ s⁻¹ and the t1/2 was 195 min. In the assay with hANGPTL3(17-460)-His [1], this molecule gave a Kd of 0.0968 nM, a koff of 9.26e-05 s⁻¹, an on-rate constant (kon) of 957000 M⁻¹ s⁻¹ and a t1/2 of 125 min.
Consider B8, for which the “EC50 (nM), inhibition of LPL activity” value with bovine LPL amounted to 50 nM.

B9: H4H1263S (antibody, IgG4, V domains shown)
VH: QVQLVQSGGGVVQPGRSLRLSCAASGFTFSTYGMHWVRQAPGKGLEWMAVISFDRGNKYYADSVKGRFTISRDNSKNTLYLQMNSLRAEDTAVYYCAKGGGSGTFYYYYGMDVWGQGTTVTVSS
VL: DIQMTQSPSSVSASVGNRVTITCRASQGISSWLAWYHQKPGKVPKVLIYAASSLQSGVPSRFSGSGSGTDFTLTISSLQPEDFATYYCQQANSFPFTFGPGTKVEIKR
On to B9, for which, in the assay with mANGPTL3(17-455)-His, the binding result was “no binding”. For the same molecule, in the assay with hANGPTL3(17-460)-His [2], binding was characterised by a dissociation constant (Kd) of 0.381 nM, the koff came out at 0.00181 s⁻¹, the kon stood at 4.74e+06 M⁻¹ s⁻¹ and the t1/2 stood at 6 min. For the same molecule, in the assay with hANGPTL3(17-169)-mFc, the Kd was 6.23 nM, the koff stood at 0.00422 s⁻¹, the kon was found to be 677000 M⁻¹ s⁻¹ and the t1/2 was determined as 3 min. In the assay with hANGPTL3(17-460)-His [1], this molecule had a Kd of 2.47 nM, a koff of 0.00126 s⁻¹, a kon of 508000 M⁻¹ s⁻¹ and a t1/2 of 9 min.
